Measurements from US20230365658A1.

Biological target: SARS-CoV-2 spike (S) glycoprotein, artificially-constructed BA.2.75+R346T (SARS-CoV-2), P0DTC2
Assay: cell-based or functional assay

B1: mAb_v2130Vanderbilt_184_20220114_00112 (antibody, V domains shown)
VH: EVQLVESGGGLVKPGGSLRLSCAASGFTFRDVWMSWVRQAPGKGLEWVGRIKSKIDGGTTDYAAPVKGRFTISRDDSKNTLYLQMNSLKTEDTAVYYCTTAGSYYYDTVGPELPEGKFDYWGQGTLVTVSS
VL: not shown
- pseudoviral neutralization IC50: 0.674 µg/mL
